Results reported in patent publication US20130115220A1 (DAINIPPON SUMITOMO PHARMA, published 2013).

T1: keto acyl synthase (KS) domain of FAS labeled with Flag at the N-terminal (UniProt P19096 1-406, limits assumed)
T1 construct: domain: keto acyl synthase (KS); Subcloned into pFLAG-CMV2 from the full-length FAS cDNA
T1 sequence (looked up): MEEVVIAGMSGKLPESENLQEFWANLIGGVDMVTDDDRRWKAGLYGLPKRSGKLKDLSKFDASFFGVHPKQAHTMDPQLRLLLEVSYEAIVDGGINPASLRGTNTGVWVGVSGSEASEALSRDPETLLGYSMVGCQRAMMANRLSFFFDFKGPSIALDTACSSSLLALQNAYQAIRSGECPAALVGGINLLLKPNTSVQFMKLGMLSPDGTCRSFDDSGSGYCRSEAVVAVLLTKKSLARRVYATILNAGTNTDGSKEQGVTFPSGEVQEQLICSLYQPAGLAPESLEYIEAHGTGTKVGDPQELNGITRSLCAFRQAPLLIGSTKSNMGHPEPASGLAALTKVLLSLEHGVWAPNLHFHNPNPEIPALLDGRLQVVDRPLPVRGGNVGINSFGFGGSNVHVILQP

T2: malonyl/acetyl transferase (MAT) domain of FAS labeled with Flag at the N-terminal (UniProt P19096 429-817, limits assumed)
T2 construct: domain: malonyl/acetyl transferase (MAT); Subcloned into pFLAG-CMV2 from the full-length FAS cDNA
T2 sequence (looked up): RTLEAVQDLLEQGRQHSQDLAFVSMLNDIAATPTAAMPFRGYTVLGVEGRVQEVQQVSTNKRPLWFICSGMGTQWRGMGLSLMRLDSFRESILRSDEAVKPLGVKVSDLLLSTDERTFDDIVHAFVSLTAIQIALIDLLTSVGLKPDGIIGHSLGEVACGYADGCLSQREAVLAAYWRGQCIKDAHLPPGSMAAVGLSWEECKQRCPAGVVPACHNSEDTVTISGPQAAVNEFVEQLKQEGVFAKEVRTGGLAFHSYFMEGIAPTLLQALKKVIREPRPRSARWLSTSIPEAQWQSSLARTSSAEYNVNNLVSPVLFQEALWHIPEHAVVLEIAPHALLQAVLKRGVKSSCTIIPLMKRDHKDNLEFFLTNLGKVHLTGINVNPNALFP

B1: recombinant AIM protein (rAIM) of mouse labeled with HA-tag (ligand)
chain: ESPTKVQLVGGAHRCEGRVEVEHNGQWGTVCDDGWDRRDVAVVCRELNCGAVIQTPRGASYQPPASEQRVLIQGVDCNGTEDTLAQCELNYYVFDCSHEEDAGAQCENPDSDLLFIPEDVRLVDGPGHCQGRVEVLHQSQWSTVCKAGWNLQVSKVVCRQLGCGRALLTYGSCNKNTQGKGPIWMGKMSCSGQEANLRSCLLSRLENNCTHGEDTWMECEDPFELKLVGGDTPCSGRLEVLHKGSWGSVCDDNWGEKEDQVVCKQLGCGKSLHPSPKTRKIYGPGAGRIWLDDVNCSGKEQSLEFCRHRLWGYHDCTHKEDVEVICTDFDV
notes: also called rAIM-HA; AIM-HA; not shown: HA-tag

What was measured:
Assay in all cases: co-immunoprecipitation of Flag-tagged FAS domains with AIM-HA in HEK293T cells
[1] = target: B1
[2] = target: T1, keto acyl synthase (KS) domain of FAS …
[3] = target: T2, malonyl/acetyl transferase (MAT) domain …

| binding result [1] | binding result [2] | binding result [3] | Binder |
| --- | --- | --- | --- |
| no binding |  |  | keto reductase (KR) domain of FAS labeled with Flag at the N-terminal (enzyme, UniProt P19096 1857-2111, looked up, not shown: small tags and cut ends, domain: keto reductase (KR); Subcloned into pFLAG-CMV2 from the full-length FAS cDNA) VLPGAQPTLISAISKTFCPAHKSYIITGGLGGFGLELARWLVLRGAQRLVLTSRSGIRTGYQAKHIREWRRQGIQVLVSTSNVSSLEGARALIAEATKLGPVGGVFNLAMVLRDAMLENQTPELFQDVNKPKYNGTLNLDRATREACPELDYFVAFSSVSCGRGNAGQTNYGFANSTMERICEQRRHDGLPGLAVQWGAIGDVGIVLEAMGTNDTVIGGTLPQRISSCMEVLDLFLNQPHAVLSSFVLAEKKAVA |
|  | no binding | no binding | B1 |
| no binding |  |  | acylcarrier protein (ACP) domain of FAS labeled with Flag at the N-terminal (enzyme, UniProt P19096 2112-2192, looked up, not shown: small tags and cut ends, domain: acylcarrier protein (ACP); Subcloned into pFLAG-CMV2 from the full-length FAS cDNA) HGDGDTQRDLVKAVAHILGIRDLAGINLDSTLADLGLDSLMGVEVRQILEREHDLVLPMREVRQLTLRKLQEMSSKTDSAT |
